In patent US20250376519A1 (JIANGSU HENGRUI PHARMACEUTICALS, published 2025):
Where a chain is given by its changes, count along the chain named.

B1: mAb98 (antibody, V domains shown)
VH: EVQLVESGGGLVKPGGSLKLSCAASGFTFSDYGIHWVRQAPEKGLEWVAYISSGGYTIYYADTVKGRFTISRDNAKNTLFLQMTSLRSEDTAMYYCARGDYDDIFYTMDYWGQGTSVTVSS
VL: DIQMTQTTSSLSASLGDRVTISCRASRDITKFLNWYQQKPDGTVKLLIYYTSRLHSGVPSRFSGSGSGTDYSLTISNLDQEDIATYFCQQGNTLPWTFGGGTKLDIK
notes: murine hybridoma antibody (culture supernatant)
B2: mAb6 (antibody, V domains shown)
VH: EVQLQQSGPVLVKPGASVKMSCKASGYTFTDYYMNWVKQSHGKSLEWIGIINPYSGVTIYNHKFKGKATLTVDKSSNTAYMELNSLTSEDSAVYYCARQDSLLDYAMDYWGQGTSVTVSS
VL: DILMTQSPSSMSVSLGDTVSITCHASQGISGNMGWLQQKPGKSFKGLIYHGANLEDGVPSRFSGSGSGADYSLTISSLESEDFADYYCVQYAQFPYTFGGGTKLEIK
notes: as for B1
B3: mAb30 (antibody, V domains shown)
VH: EVRLQQFGPVLVKPGASVKMSCKASGYTFTDYYMNWVKQSHGKSLEWIGIINPYNGDTSYNQKFRGKATLTVDKSSSTAYMELNSLTSEDSAVYYCARYHYGPHLEGYFDVWGTGTTLTVSS
VL: DIVMTQSPKSMSMSVGERVTLSCKASENVGYVSWYQQKPEQSPKLLIYGASNRYTGVPDRFTGSGSATDFTLTISSVQAEDLADYHCGQSYSYPLTFGSGTKLEIK
B4: HJ-8 (bispecific antibody)
chain 1: not shown
chain 2: DIQMTQSPSSVSASVGDRVTITCRASQDIANYLSWYQQKPGKSPKLLIYGTSNLEVGVPSRFSGSRSGTDFTLTISSLQPEDFATYYCLQDKEFPRTFGGGTKVEIKRTVASSGAPRFLTRPKASVVSVGKDATLSSQIVGNPFPQVSWEKDKQPVTAGVRFRLAQDGDLYRLKILDLQLSDSGQYVSRARNAHGEAFACLGLQVDAEA
chain 3: EVQLVQSGAEVKKPGSSVKVSCKASGYTFSNYLIEWVRQAPGQGLEWIGVIDPGVGDTNYNENFKGRATLTADKSTSTAYIELSSLRSEDTAVYYCAREDNTGTAFDYWGQGTTVTVSSASTKGPSVFPLAPSSKSTSGGTAALGCLVKDYFPEPVTVSWNSGALTSGVHTFPAVLQSSGLYSLSSVVTVPSSSLGTQTYICNVNHKPSNTKVDKKVEPKSCDKTHTCPPCPAPEAAGGPSVFLFPPKPKDTLMISRTPEVTCVVVDVSHEDPEVKFNWYVDGVEVHNAKTKPREEQYNSTYRVVSVLTVLHQDWLNGKEYKCKVSNKALPAPIEKTISKAKGQPREPQVCTLPPSREEMTKNQVSLSCAVKGFYPSDIAVEWESNGQPENNYKTTPPVLDSDGSFFLVSKLTVDKSRWQQGNVFSCSVMHEALHNHYTQKSLSLSPGK
chain 4: SIVMTQTPLSLSVTPGQPASISCKASQSVSSDVTWYLQKPGQSPQLLIYYVSEHYTGVPDRFSGSGYGTDFTLKISRVEAEDVGVYYCQQHHRFPLTFGQGTKLEIKRTVAAPSVFIFPPSDEQLKSGTASVVCLLNNFYPREAKVQWKVDNALQSGNSQESVTEQDSKDSTYSLSSTLTLSKADYEKHKVYACEVTHQGLSSPVTKSFNRGEC
B5: HJ-11 (bispecific antibody)
chain 1: not shown
chain 2: B4 chain 2 with A115C, S137C, S188C
chain 3: B4 chain 3
chain 4: B4 chain 4
B6: HJ-9 (bispecific antibody)
chain 1: not shown
chain 2: B4 chain 2 with R121C
chain 3: B4 chain 3
chain 4: B4 chain 4
B7: HJ-10 (bispecific antibody)
chain 1: not shown
chain 2: B4 chain 2 with S137C, S188C
chain 3: B4 chain 3
chain 4: B4 chain 4
B8: mAb110 (antibody, V domains shown)
VH: EVQLQQSGPVLVKPGASVKMSCKTSGYTFTDYYMNWVKQSHGKSLEWIGIINPYNGGTSYTQKFKGKATLTVDKSSSTAYMELNSLTSEDSTVYFCARHFYDSSYLTYSTMDYWGQGTSVTVSS
VL: NIVMTQSPKSMSMSVGERVTLSCKASENVGIFVSWYQQKPKQSPKLLIYGASNRYTGVPDRFTGSGSATDFTLTISSVQAEDLADYYCGQSHSYPLTFGTGTKLELK
notes: as for B1
B9: BI-764532 (bispecific antibody, human IgG1, kappa, lambda, L234A L235A)
chain 1: DIQMTQSPSAMSASVGDRVTITCRASQGISNYLVWFQQKPGKAPKRLIYAVSSLYSGVPSRFSGSGSGTEFTLTISSLQPEDFATYYCLQHDSYPYTFGQGTKLEIKRTVAAPSVFIFPPSDEQLKSGTASVVCLLNNFYPREAKVQWKVDNALQSGNSQESVTEQDSKDSTYSLSSTLTLSKADYEKHKVYACEVTHQGLSSPVTKSFNRGECGGGGSEGKSSGSGSESKSTEGKSSGSGSESKSTGGGGSQVQLVQSGAEVKKPGASVKVSCKASGYTFTSYYVHWVRQAPGQGLEWMVIINPGGGTTSYAQKFLGRVTMTRDTSTNTVYMELKSLRSEDTAVYYCARGEAVTGNYFYYGMDVWGQGTTVTVSSASTKGPSVFPLAPSSKSTSGGTAALGCLVKDYFPEPVTVSWNSGALTSGVHTFPAVLQSSGLYSLSSVVTVPSSSLGTQTYICNVNHKPSNTKVDKRVEPKSCDKTHTCPPCPAPEAAGGPSVFLFPPKPKDTLMISRTPEVTCVVVDVSHEDPEVKFNWYVDGVEVHNAKTKPREEQYNSTYRVVSVLTVLHQDWLNGKEYKCKVSNKALPAPIEKTISKAKGQPREPQVYTLPPSREEMTKNQVSLWCLVKGFYPSDIAVEWESNGQPENNYKTTPPVLDSDGSFFLYSKLTVDKSRWQQGNVFSCSVMHEALHNHYTQKSLSLSPG
chain 2: EAVVTQEPSLTVSPGGTVTLTCRSSTGAVTTSNYANWVQEKPGQLPRGLIGGTNKRAPWVPARFSGSLLGGKAALTLSGAQPEDEAEYFCALWYSNLWVFGGGTKLTVLGQPKAAPSVTLFPPSSEELQANKATLVCLISDFYPGAVKVAWKADGSPVNTGVETTTPSKQSNNKYAASSYLSLTPEQWKSHRSYSCQVTHEGSTVEKTVAPAECSGGGGSEGKSSGSGSESKSTEGKSSGSGSESKSTGGGGSEVQLVESGGGLVQPGGSLKLSCAASGFTFNTYAMNWVRQAPGKGLEWVARIRSKYNNYATYYADSVKDRFTISRDDSKNTAYLQMNNLKTEDTAVYYCVRHGNFGNSYVSWFAYWGQGTLVTVSAASTKGPSVFPLAPSSKSTSGGTAALGCLVKDYFPEPVTVSWNSGALTSGVHTFPAVLQSSGLYSLSSVVTVPSSSLGTQTYICNVNHKPSNTKVDKRVEPKSCDKTHTCPPCPAPEAAGGPSVFLFPPKPKDTLMISRTPEVTCVVVDVSHEDPEVKFNWYVDGVEVHNAKTKPREEQYNSTYRVVSVLTVLHQDWLNGKEYKCKVSNKALPAPIEKTISKAKGQPREPQVYTLPPSREEMTKNQVSLSCAVKGFYPSDIAVEWESNGQPENNYKTTPPVLDSDGSFFLVSKLTVDKSRWQQGNVFSCSVMHEALHNRFTQKSLSLSPG

Key:
[1] = molecular target: T1, monkey DLL3 protein (screening antigen) (cynomolgus monkey, UniProt Q9NYJ7 27-492 (human entry), limits assumed); assay: ELISA, hybridoma supernatant
T1 chain: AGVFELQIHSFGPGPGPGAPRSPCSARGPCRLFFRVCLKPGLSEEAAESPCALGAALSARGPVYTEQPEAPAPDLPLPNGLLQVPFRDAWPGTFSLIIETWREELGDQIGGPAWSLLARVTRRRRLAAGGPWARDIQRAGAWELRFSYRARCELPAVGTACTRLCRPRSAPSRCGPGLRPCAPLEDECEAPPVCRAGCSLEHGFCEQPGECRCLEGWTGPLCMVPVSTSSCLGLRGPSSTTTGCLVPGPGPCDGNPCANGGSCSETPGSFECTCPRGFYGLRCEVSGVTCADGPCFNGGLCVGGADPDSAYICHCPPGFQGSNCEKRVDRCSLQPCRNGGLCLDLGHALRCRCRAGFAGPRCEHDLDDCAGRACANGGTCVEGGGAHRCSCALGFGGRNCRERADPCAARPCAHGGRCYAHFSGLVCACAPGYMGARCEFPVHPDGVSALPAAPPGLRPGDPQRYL
Description: (§1) Spleen lymphocytes and the myeloma cells, Sp2/0 cells (ATCC® CRL-8287™), were fused by following an optimized electrofusion procedure to obtain hybridoma cells. Based on the growth density of hybridoma cells, the hybridoma culture supernatant was assayed using an ELISA method with binding to DLL3 protein and a FACS method with binding to DLL3 CHO-s cells.

[2] = molecular target: T2, human DLL3 protein (screening antigen) (human, UniProt Q9NYJ7 27-492, limits assumed); assay: phage ELISA
T2 construct: Biotinylated in the phage panning
T2 sequence: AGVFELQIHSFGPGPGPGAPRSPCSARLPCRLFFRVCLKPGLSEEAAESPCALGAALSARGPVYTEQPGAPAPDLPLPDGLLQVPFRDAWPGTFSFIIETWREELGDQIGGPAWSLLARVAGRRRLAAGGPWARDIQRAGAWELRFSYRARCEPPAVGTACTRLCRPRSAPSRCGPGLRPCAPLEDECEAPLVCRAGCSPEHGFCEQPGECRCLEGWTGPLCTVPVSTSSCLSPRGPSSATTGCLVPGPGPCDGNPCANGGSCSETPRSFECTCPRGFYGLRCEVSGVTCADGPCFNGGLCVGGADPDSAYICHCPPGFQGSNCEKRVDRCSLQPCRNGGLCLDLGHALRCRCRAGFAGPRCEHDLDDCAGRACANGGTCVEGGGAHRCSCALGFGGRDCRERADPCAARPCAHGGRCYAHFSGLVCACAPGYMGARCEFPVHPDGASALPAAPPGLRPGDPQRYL

[3] = molecular target: T1, monkey DLL3 protein (screening antigen); assay: phage ELISA
hTSLP = hTSLP (human, UniProt Q969D9 29-159); assay: ELISA
hIL5 = hIL5 (human, UniProt P05113 20-134); assay: ELISA
human DLL3 on cells [4] = molecular target: T3, human DLL3 on cells (human, UniProt Q9NYJ7 27-618); assay: FACS, DLL3 CHO-s cells, hybridoma supernatant
T3 construct: Endogenous on H1184 and SHP77; Cell line is named under assay; also called H1184; DLL3/H82
T3 sequence: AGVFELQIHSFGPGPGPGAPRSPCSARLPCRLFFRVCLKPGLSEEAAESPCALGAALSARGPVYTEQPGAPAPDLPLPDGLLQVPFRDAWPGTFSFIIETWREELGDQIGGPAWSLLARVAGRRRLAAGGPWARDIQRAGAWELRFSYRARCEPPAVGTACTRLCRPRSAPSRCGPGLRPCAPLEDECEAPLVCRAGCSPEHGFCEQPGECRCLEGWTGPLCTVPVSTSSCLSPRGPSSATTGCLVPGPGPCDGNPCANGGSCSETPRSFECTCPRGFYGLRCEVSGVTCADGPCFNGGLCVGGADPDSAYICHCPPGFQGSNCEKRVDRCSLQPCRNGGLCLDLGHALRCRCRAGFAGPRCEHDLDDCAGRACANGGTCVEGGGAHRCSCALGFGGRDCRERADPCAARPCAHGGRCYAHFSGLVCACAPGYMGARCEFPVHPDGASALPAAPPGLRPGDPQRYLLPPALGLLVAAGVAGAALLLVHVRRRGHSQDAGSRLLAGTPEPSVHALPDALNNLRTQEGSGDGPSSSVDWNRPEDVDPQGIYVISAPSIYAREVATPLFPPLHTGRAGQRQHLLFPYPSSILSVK
Description: as §1

[5] = molecular target: T2, human DLL3 protein (screening antigen); assay: ELISA, hybridoma supernatant
Description: as §1

human DLL3 on cells [6] = molecular target: T3, human DLL3 on cells; assay: cell-based or functional assay

Binder | binding result [1] | EC50 (hTSLP) | EC50 (hIL5) | further results
B1 | binds |  |  | 
B2 | binds |  |  | 
B3 |  |  |  | binding result [2]: binds; binding result [3]: binds
B4 |  | 3.33 nM | 18.7 nM | 
B5 |  | 3 nM | 9.46 nM | 
B6 |  | 3.18 nM | 10.9 nM | 
B7 |  | 3.17 nM | 20.8 nM | 
B8 | binds |  |  | binding result (human DLL3 on cells [4]): binds; binding result [5]: binds
B9 |  |  |  | IC50, PBMC killing of SHP77/lucG cells (human DLL3 on cells [6]): 0.0446 nM; Imax (%), PBMC killing of SHP77/lucG cells (human DLL3 on cells [6]): 97%
